{"source": "the DeepSol protein solubility set"}
{"assay": "soluble on expression in E. coli; label from the status in PepcDB or PDB records"}
{"sequence": "MSGEEKEKVKILHVANISTSATRDHIYNMFNYLGKIQDLKVYPSEGNITANTLLKTAFIKFDDERCVEVAQHLTNTVVIDCAIVCLPYPNPVIPDEESFFNSGGSTTAGQRQLPPHVTNKIQESDDGSALLITVDPTLEQLGLPAYPPLPADTDSAKVEEIRRTVYVGNLPKGVDGNEVLELFNMYFGEVMYARMASGPDALPCAYAYVEFSQQASVCNALQNDGFEFKERPLKIQHSRVAIIKPQAKTDEQALGEIEEAIRMGRNGDDRDRRRSRSPRRRRSPSPRRRRDSRDRDRDRDRDRRRSRDRRSRSRDRDRDRDRKRSRSRDRKRRSRSRDNKDRDRKRSRSRDRRRRSKSRDRKRERSRSRSKDRKRDKKRSRSRSPEKRRDKEDRKTEKKENENESSLREKLLEKKAARKDSSDDEWEEKPTPTNGEVKNEEIGNGDVVMASE", "soluble on expression in E. coli": "soluble"}
{"sequence": "MSGEKIDITPKKDGGVLKLIKKEGQGVVKPTTGTTVKVHYVGTLENGTKFDSSRDRGDQFSFNLGRGNVIKGWDLGVATMTKGEVAEFTIRSDYGYGDAGSPPKIPGGATLIFEVELFEWSAEDISPDRDGTILRTIIVEGSKNSFPNDTSKVLAHCVGTYQGTEFYNREVNFHIGEGSEEGLPEGVERALRRFQLGEKSKIEIRGHKYTYGNSPPAGSNIPVNATLEFTIFLKEFEKVPATWEMTAEEKLDAAKQAKDRGTMYLQKGNLKLAYNKYKRAEEVLEYEKSTDPEKMAERETILNGAYLNLSLVCSKQNEQLECIKWCDKVLETKPGNVKALYRKATALLTMNEVRDAMKLFEKIVEVEPENKAAAQQIIVCRNTIREQNERDKKRFKNLFAKISTEEDKPTNTVEDEDEIVASTSGSSTSNA", "soluble on expression in E. coli": "soluble"}
{"sequence": "MSGIWGNNLKVSIFGESHGNAIGINIDGLPSGIELDLDKIDKEMKRRAPGKNSISTSRNESDIPEILSGYFNGRTTGTPLCAIIRNSDTRSKDYGELKNLMRPGHADFTGNVRYSGFNDYRGGGHFSGRITAPLVFCGAICKQILSQKGIEIGAHIKKIKNIEDMSFDYVNISKQQLSNLQTLELPLLDLSKEEAMKNTIIDAKNQGDSVGGIIECAVVGINVGLGNPFFDSVESTLSHLLFSVPAVKGVEFGLGFELADMYGSQSNDEMYYEGNQVKSKTNNNGGIIGGITTGMPIIFKVAIKPTPSISRQQNTVNIKDKKDDILYIKGRHDPCIVQRAIPVIEAVTAIGIFDLMKGR", "soluble on expression in E. coli": "not soluble"}
{"sequence": "MSGMWLWASVSPESTGIKMSESFAELFEESLKTLNLQPGAIITGIVVDIDGDWVTVHAGLKSEGVIPLEQFYNEAGELTIKVGDEVHVALDAVEDGFGETKLSREKAKRAECWIVLEAAFAAEEVVKGVINGKVKGGFTVDVNGIRAFLPGSLVDVRPVRDTTHLEGKELEFKVIKLDQKRNNVVVSRRSVLEAENSAEREALLETLQEGQQVKGIVKNLTDYGAFVDLGGIDGLLHITDMAWKRIKHPSEIVNVGDEVDVRVLKFDRERNRVSLGLKQMGEDPWVAITARYPEGTRVQARVTNLTDYGCFAELEEGVEGLVHVSEMDWTNKNIHPSKVVQVGDEVEVMVLDIDEERRRISLGIKQCKSNPWEDFSGQFNKGDKITGTIKSITDFGIFIGLDGGIDGLVHLSDISWNETGEEAVRRFKKGDELETVILSVDPERERISLGIKQLEDDPFSNFVAVNDKGAIVKGIVKEVDAKGAIVTLADDIEATLKASEISRDRVEDARNVLKEGEEIEAKIISVDRKSRVISLSIKSKDDAEEREAIQSLKNAPEAAADTTMAALLREAMAKQNLEHHHHHH", "soluble on expression in E. coli": "soluble"}
{"sequence": "MSGSHHHHHHSSGIEGRSEVVMENVTAFWEEGFGELFEKAKQNNNNRKTSNGDDSLSFSNFSLLGTPVLKDINFKIERGQLLAVAGSTGAGKTSLLMMIMGELEPSEGKIKHSGRISFCSQFSWIMPGTIKENIIFGVSYDEYRYRSVIKACQLEEDISKFAEKDNIVLGEGGITLSGGQRARISLARAVYKDADLYLLDSPFGYLDVLTEKEIFESCVCKLMANKTRILVTSKMEHLKKADKILILHEGSSYFYGTFSELQNLQPDFSSKLMGCDSFDQFSAERRNSILTETLHRFSLEGDAPVSGGGGSGGGGSGGQMTVKDLTAKYTEGGNAILENISFSISPGQRVGLLGRTGSGKSTLLSAFLRLLNTEGEIQIDGVSWDSITLQQWRKAFGVIPQKVFIFSGTFRKNLDPYEQWSDQEIWKVADEVGLRSVIEQFPGKLDFVLVDGGCVLSHGHKQLMCLARSVLSKAKILLLDQPSAHLDPVTYQIIRRTLKQAFADCTVILCEHRIEAMLECQQFLVIEENKVRQYDSIQKLLNERSLFRQAISPSDRVKLFPHRNSSK", "soluble on expression in E. coli": "soluble"}
{"sequence": "MSGTKVPSLPKGKEKPCVVTFATQSDRSNEPPPQPRVRKVTTIINTLGVVVRNTTTEIGVWVFTSCVEVSFPRSNSPIFSNFTLGTWMIVGLYPDATVASCSPWPLILKAYEMSVSYGTVFMKRKASELCHEKTVLYSEVVVPLVNPYSNMSYFERDPHLTAELYMIPGFGRVLGSSAYRQYLEDNRDNVSFIVQYCGGSLRGCSWIMSVVDGKAQTDGEFSDKDLREIAEFIRERHNKENESPPLPSNSIARHAGFVTEVFPQKNYLYCWSPQVSLEADHTAKFPQPPKHREVDSPMLSPLVGQWIQFDVQSKDLDKYMSTRSGYRLSIQEYLPINSPCGVGVVQCGKIVRVMISCILVKSTDHPMLFELQMFGPVIDKKSSLISGAFMQIVLEKTSSRIRRMSGVCWRVIYSLIVSGAENMVENSQSVRIEAISQRDAMETSHIIPIEKRTITNNTGVTTLKYQQPHQNPHYQEQRRDYYMGNNIQIQTAYNSTQLRKYQPKPKKFSSYTGESLEGHALVEKIMAHAKTGILWFFDNYNSSVHFIFDDFELNVGDYAYVKLIQKKEETAHLQFRWKWISGTKKLSPFNCRIDLFQLFIEEQVSYKSKDMLNRNTYTSKNFPIIFDADGIIKNPIPGAIYCVVILRKKIQVTQTESPTHKYQWIIDSAQSNPFIITEYYNPHNAFNRSFIASKQFSSSAALSTDSKKGSSGSEKSSTSPPLKSLTPPSDE", "soluble on expression in E. coli": "not soluble"}
{"sequence": "MSGVYDSQADIYLDARPTYPADWYSKLAALSHRHNLAWDAGTGNGQAAIGIAEHYERVVATDVSETMLNLGKPHPKVTYHHTPSSMTEDEMVDLIGGENSVDLITVATAVHWFDLPRFYAIANRLLRKPGGIIAVWSYNTDMVVNPEFDSVMTRFIAETLPYCKFPESQYFLDGYKTLPFPFESVGLGSEGKPMELEMKKTVSFEGFLRMLRSWSAVGAAKEKGVDLLSDNVVKELETAWGGYELVRTIVYKTFMLAGTVP", "soluble on expression in E. coli": "soluble"}
{"sequence": "MSHLLTMSELSEVEISEILKDAEDFANGKESKTTEQTFVANLFFENSTRTRFSFEVAEKRLGLDVLNFSADASSVQKGETLYDTIRTLESIGTKAVVIRHEQDRYFDELKDQVNIPILNAGDGCGNHPTQCLLDLLTIKQEFGRFEGLKIAIVGDVRHSRVARSNAEALTKLGATIYFASPEEWKDEDNTFGTYKPLDELVPEVDVMMLLRVQHERHDHYETDIMKEYHEKHGLTVEREKRMKEGSIIMHPAPVNRDVEIASELVECERSRIFKQMENGVYVRMAVLKRALPNVLGGMKHELFV", "soluble on expression in E. coli": "not soluble"}
{"sequence": "MSHLNYNHLYYFWMVCKQGSVTKAADALFLTPQTVTGQIKALEDRLDGKLTKRNGRSIEPTELGQLVFKYADRMFGLSYEMLDIVNYSQRSNLLFDVGVADALSKRLVSKILLTSVPGDNRIHLRCFESTHEMLLEQLAQHKLDMILSDCPVDSSQSPGLFSKKLGESRMSFFSFGDVDFAPFPAVLQSKKLLVPGSRTAMGRKVRQWFDRQGLQPHILGEFDDSALMKAFAIYHSDAVFMAPSFYVSEVDAESSLKLIGHVDEIKEEYYVIFAERMIQHPAVKNVCDADFTNLFL", "soluble on expression in E. coli": "not soluble"}
{"sequence": "MSHPSHVRALCASLCLGAGLPVHAGHVHAGQGFLEDAKASLTARNFHLHRNFVGDASQGKAEEWTQSFILDARSGFTQGSVGFGLDVLGLYSLKLDGGKGTAGTQLLPIHDDGRPADDFGRLAVAGKLRVSNSELKIGEWMPVLPILRSDDGRSLPQTFRGGQLSANEIAGLTLYAGQFRGNSPRNDASMQDMSLFGRPAATSDRFDFAGGEYRFNGERSLLGLWNAELKDIYRQQYLQLQHSQPLGDWLLGANLGGFRGRDAGSARAGKLDNRTVSALFSARYGLHTLYLGLQKVSGDDGWMRVNGTSGGTLANDSYNASYDNPGERSWQLRYDFDFVGLGLPGLTFMTRYLHGDHVRLAGVTDDGSEWGRESELGYTLQSGAFKRLNVRWRNSSQRRDWGSNTRFDENRLIVSYPLSLL", "soluble on expression in E. coli": "not soluble"}
{"sequence": "MSHQDDYLSVEELIEIQKEETRDIIQALLEDGSDPDALYEIEHHLFAEDFDKLEKAAVEAFKMGFEVLEAEETEDEDGNKLLCFDATMQSALDAKLIDEQVEKLVNLAEKFDIIYDGWGTYYEGLEHHHHHH", "soluble on expression in E. coli": "soluble"}
